Legend:
[1] = target: purified tubulin dimer; assay: SPR
[2] = target: purified tubulin dimer; assay: SPR; VASH1 K168E/C169S; conditions: complex
[3] = target: purified tubulin dimer; assay: SPR; VASH1 R222A/C169S; conditions: complex

VASH1-SVBP complex, VASH1 mutated at R222, sequence (Q7L8A9 44-315, change not shown): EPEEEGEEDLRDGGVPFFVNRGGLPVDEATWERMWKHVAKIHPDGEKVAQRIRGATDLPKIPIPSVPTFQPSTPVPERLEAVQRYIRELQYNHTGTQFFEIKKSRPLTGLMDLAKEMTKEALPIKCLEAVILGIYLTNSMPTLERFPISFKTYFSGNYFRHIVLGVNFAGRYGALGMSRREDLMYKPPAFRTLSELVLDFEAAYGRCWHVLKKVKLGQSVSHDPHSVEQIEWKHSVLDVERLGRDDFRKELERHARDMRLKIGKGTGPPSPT
VASH1-SVBP complex, VASH1 mutated at R222, sequence (Q8N300 whole entry, change not shown): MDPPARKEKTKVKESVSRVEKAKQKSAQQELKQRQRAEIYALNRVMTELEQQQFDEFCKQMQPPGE
VASH1-SVBP complex, VASH1 mutated at K168, sequence (Q7L8A9 44-315, change not shown): as the sequence (Q7L8A9 44-315, change not shown) above
VASH1-SVBP complex, VASH1 mutated at K168, sequence (Q8N300 whole entry, change not shown): as the sequence (Q8N300 whole entry, change not shown) above

Kd [1] [nM]	Substance	other results
990	VASH1 C169A-SVBP	–
470	VASH1 C169S-SVBP	–
750	VASH1 H204A/C169S-SVBP	–
1310	VASH1 R222E/R223E/C169S-SVBP	–
570	VASH1 S221A/C169S-SVBP	–
–	VASH1-SVBP complex, VASH1 mutated at K168 (from UniProt Q7L8A9 44-315; Q8N300 1-66)	Kd [2]: 1140 nM
–	VASH1-SVBP complex, VASH1 mutated at R222 (from UniProt Q7L8A9 44-315; Q8N300 1-66)	Kd [3]: 1400 nM
